According to paper PMC11931385, “Structural and functional analysis of cancer-associated missense variants in the retinoblastoma protein pocket domain” (The Journal of Biological Chemistry, 2025):
Residue numbers refer to the chain shown, from its start. Numbers in names are those of the source. No end group written: not given here. TMR = tetramethyl rhodamine dye

T1: Rb^P M704V (human, UniProt P06400 380-788, M704V)
T1 construct: also called variant 66
T1 sequence (looked up): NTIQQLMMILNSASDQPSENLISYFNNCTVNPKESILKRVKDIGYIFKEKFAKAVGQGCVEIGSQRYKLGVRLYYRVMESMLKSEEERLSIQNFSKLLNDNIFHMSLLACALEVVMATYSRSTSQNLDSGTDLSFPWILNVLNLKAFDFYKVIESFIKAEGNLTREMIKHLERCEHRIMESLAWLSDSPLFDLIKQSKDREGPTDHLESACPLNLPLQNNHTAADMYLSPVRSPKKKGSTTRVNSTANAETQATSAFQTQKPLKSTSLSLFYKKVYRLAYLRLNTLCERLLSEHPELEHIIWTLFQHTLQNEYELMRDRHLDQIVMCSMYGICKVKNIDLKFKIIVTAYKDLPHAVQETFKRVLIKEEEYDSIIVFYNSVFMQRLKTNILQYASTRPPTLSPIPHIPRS

T2: Rb^P A490V (human, UniProt P06400 380-788, A490V)
T2 construct: also called variant 17
T2 sequence (looked up): T1 sequence (looked up) with A111V, V325M

T3: Rb^P P595L (human, UniProt P06400 380-788, P595L)
T3 construct: also called variant 35
T3 sequence (looked up): T1 sequence (looked up) with P216L, V325M

T4: Rb^P A490S (human, UniProt P06400 380-788, A490S)
T4 construct: also called variant 15
T4 sequence (looked up): T1 sequence (looked up) with A111S, V325M

T5: Rb^P R741C (human, UniProt P06400 380-788, R741C)
T5 construct: also called variant 68
T5 sequence (looked up): T1 sequence (looked up) with V325M, R362C

B1: TMR-E2F1^TD, peptide of the E2F1 transactivation domain (peptide)
peptide: {TMR}-GEGIRDLFDCDFGDLTPLD
notes: also called E2F^TD; source: synthetic peptide, bought: GenScript
B2: TMR-E7^LxCxE, LxCxE peptide of the E7 oncoprotein from HPV (peptide)
peptide: DLYCYEQLN
modifications: also: TMR label, position not given here
notes: source: synthetic peptide, bought: GenScript

Assays:
Assay in all cases: fluorescence polarisation; 25 °C; unlabeled Rb^P titrated against 1.5 nM TMR-E2F1^TD or 7.5 nM TMR-E7^LxCxE; 25 mM Tris pH 8.0, 200 mM NaCl, 1 mM DTT, 0.1% Tween-20; 2 min incubation; quadratic fit; apparent Kd for the variants, Kd for WT
Settings in all cases: both partners purified
Rb^P M704V = target: T1, Rb^P M704V
Rb^P A490V = target: T2, Rb^P A490V
Rb^P P595L = target: T3, Rb^P P595L
Rb^P A490S = target: T4, Rb^P A490S
Rb^P R741C = target: T5, Rb^P R741C

Binder	Kd (Rb^P M704V) [nM]	Kd (Rb^P A490V) [nM]	Kd (Rb^P P595L) [nM]	Kd (Rb^P A490S) [nM]	Kd (Rb^P R741C) [nM]
B1	41	48	46	17	23
B2	18	11	14	7	14
